# In US20240254201A1 (ACADEMY OF MILITARY MEDICAL SCIENCE PLA, published 2024):
# T1: EBOV GP on EBOV-eGFP-Mayinga authentic virus (Ebola virus (EBOV), Mayinga, UniProt Q05320 33-676)
# T1 sequence: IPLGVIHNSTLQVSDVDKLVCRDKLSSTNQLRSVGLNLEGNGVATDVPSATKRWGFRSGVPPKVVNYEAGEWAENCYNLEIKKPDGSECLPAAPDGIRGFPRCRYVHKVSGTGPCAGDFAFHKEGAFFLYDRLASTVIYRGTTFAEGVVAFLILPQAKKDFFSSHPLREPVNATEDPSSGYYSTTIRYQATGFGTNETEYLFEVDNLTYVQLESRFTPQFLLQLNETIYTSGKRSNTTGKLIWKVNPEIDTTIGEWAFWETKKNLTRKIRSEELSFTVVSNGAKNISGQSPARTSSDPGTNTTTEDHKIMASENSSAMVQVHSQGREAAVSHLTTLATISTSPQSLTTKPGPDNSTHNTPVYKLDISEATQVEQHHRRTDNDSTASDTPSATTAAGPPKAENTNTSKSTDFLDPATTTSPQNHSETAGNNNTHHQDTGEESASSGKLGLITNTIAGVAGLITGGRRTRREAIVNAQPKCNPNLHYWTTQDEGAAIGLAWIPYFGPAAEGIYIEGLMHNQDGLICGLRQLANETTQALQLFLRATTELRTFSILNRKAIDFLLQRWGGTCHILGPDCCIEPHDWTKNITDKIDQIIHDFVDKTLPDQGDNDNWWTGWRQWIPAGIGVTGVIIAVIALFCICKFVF
# T2: RESTV GP (RESTV, UniProt Q66799 34-638)
# T2 sequence: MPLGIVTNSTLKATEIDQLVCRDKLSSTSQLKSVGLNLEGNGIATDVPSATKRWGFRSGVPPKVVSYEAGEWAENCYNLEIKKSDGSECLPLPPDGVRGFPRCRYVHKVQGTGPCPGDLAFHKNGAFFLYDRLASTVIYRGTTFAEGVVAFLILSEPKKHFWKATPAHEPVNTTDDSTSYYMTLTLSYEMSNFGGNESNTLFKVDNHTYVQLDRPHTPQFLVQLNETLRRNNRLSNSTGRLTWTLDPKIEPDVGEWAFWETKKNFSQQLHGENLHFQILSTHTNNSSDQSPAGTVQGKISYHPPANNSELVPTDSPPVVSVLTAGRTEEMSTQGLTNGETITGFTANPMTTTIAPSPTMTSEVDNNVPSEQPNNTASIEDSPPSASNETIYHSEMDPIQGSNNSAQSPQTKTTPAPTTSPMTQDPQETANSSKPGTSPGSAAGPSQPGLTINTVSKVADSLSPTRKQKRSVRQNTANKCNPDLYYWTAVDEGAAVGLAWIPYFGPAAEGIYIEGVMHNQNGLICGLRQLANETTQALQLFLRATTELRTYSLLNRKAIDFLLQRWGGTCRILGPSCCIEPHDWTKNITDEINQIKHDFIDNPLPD
# T3: SUDV GP (Sudan ebolavirus (SUDV), UniProt Q7T9D9 33-637)
# T3 construct: also called Sudan ebolavirus GP
# T3 sequence: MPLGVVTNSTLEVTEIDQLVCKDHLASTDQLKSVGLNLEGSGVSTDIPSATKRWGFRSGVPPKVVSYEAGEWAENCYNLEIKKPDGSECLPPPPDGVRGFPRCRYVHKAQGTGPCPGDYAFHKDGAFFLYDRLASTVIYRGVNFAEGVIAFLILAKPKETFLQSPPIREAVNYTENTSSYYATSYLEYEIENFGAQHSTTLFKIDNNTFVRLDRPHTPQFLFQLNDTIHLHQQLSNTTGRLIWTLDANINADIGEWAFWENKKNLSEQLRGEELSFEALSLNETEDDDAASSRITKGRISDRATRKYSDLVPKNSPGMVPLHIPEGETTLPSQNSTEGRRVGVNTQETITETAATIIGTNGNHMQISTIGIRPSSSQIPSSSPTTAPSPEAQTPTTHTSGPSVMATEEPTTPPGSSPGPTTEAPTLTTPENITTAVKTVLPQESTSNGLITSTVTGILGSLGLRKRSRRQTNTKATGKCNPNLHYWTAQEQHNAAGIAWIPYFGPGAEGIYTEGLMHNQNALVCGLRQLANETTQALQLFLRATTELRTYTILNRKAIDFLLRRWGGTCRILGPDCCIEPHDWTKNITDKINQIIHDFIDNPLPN
# How the values were obtained:
# [1] = target: T1, EBOV GP on EBOV-eGFP-Mayinga authentic …; assay: cell-based or functional assay
# sGP = target: T4, sGP (Ebola virus (EBOV), UniProt P60170 33-324); assay: ELISA on coated truncated GP
# T4 construct: also called secreted glycoprotein
# RESTV GP = target: T2, RESTV GP; assay: ELISA, purified antibody on coated GP (1 µg/mL)
# SUDV GP = target: T3, SUDV GP; assay: ELISA, purified antibody on coated GP (1 µg/mL)
Binder,"IC50, EBOV-eGFP-Mayinga authentic virus neutralization test [1] [µg/mL]",binding result (sGP),EC50 (RESTV GP) [µg/mL],EC50 (SUDV GP) [µg/mL]
"MIL77-1 (antibody, V domains shown) VH: EVALEESGGGLMQPGGSMKLSCVASGFTFSNYWMNWVRQSPEKGLEWVAEIRLKSNNYATHYAESVKGRFTISRDDSKRSVYLQMNTLRAEDTGIYYCTRGNGNYRAMDYWGQGTSVTVSS VL: DIQMTQSPASLSVSVGETVSITCRASENIYSSLAWYQQKQGKSPQLLVYSATILADGVPSRFSGSGSGTQYSLKINSLQSEDFGTYYCQHFWGTPYTFGGGTKLEIKR",3.12,,,
"monoclonal antibody 2G1 (antibody, V domains shown, also called 2G1-WT; wild-type 2G1) VH: EVQLVESGGGLVKRGGSLRLSCVVSGYTFGGYSMHWVRQAPGKGLEWVSGISSSSYYKYYADSVKGRFTISRDNAKNSLYLQMNSLRAEDTAVYYCARDMGYCSGGSCPNFDFWGQGTTVTVSS VL: DIQMTQSPSSLSASVGDRVTITCRTSQSISNYLNWYQQIPGKAPKLLISTASNLHSGVSSRFSGSGSGTHFTLTISSLQPEDFATYYCQQSYSTPSFGQGTKVEIKR",,no binding,0.026,0.0048
